Results as given in article PMC4142212 (Nature, 2014).

Key:
[1] = target: T1, ZMYND11 PBP (PHD-Bromo-PWWP, aa74-371) (Mus musculus, UniProt Q8R5C8); assay: ITC, ZMYND11 PBP domains; type: binding; settings: n value fixed at 1
T1 sequence (Q8R5C8 74-371): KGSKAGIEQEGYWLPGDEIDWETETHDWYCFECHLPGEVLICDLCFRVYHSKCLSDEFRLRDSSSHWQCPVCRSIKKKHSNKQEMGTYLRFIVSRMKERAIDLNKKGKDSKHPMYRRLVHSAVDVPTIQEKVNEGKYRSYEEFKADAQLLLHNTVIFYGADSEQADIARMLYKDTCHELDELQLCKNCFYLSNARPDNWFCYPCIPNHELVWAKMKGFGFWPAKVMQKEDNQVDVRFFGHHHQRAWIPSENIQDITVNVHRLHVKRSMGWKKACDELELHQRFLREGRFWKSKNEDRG

ZMYND11 PBP = assay: Histone peptide pull-down, GST-ZMYND11 PBP; type: binding, mouse; settings: mild buffer: 50 mM Tris-HCl 7.5, 200 mM NaCl, 0.05% NP-40, 1 mM PMSF
[2] = target: T2, ZMYND11 BP (Bromo-PWWP, 154-371) (Mus musculus, UniProt Q8R5C8); assay: ITC, ZMYND11 BP domains; type: binding; settings: n value fixed at 1
T2 sequence (Q8R5C8 154-371): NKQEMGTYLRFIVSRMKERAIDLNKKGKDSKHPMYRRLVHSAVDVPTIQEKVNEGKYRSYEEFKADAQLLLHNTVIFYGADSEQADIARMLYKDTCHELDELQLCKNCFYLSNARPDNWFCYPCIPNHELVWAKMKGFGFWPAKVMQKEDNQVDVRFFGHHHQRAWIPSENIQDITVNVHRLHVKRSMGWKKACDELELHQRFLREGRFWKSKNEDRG

Question: With “H3.1K36me3: synthetic histone H3.1_19-42K36me3 peptide” as the substance, how does the Titration c-value [1] read?
Answer: Its Titration c-value is 0.16.

Question: And the “peptide pull-down binding, mild buffer” value (ZMYND11 PBP)?
Answer: The value was “weak binding”.

Question: What about the Titration c-value [2] of the same substance?
Answer: Its Titration c-value is 0.15.
